Measured values published in FireProtDB (doi:10.1021/bi060848l).

B1: Camphor 5-monooxygenase, P00183 (parent)
chain: MTTETIQSNANLAPLPPHVPEHLVFDFDMYNPSNLSAGVQEAWAVLQESNVPDLVWTRCNGGHWIATRGQLIREAYEDYRHFSSECPFIPREAGEAYDFIPTSMDPPEQRQFRALANQVVGMPVVDKLENRIQELACSLIESLRPQGQCNFTEDYAEPFPIRIFMLLAGLPEEDIPHLKYLTDQMTRPDGSMTFAEAKEALYDYLIPIIEQRRQKPGTDAISIVANGQVNGRPITSDEAKRMCGLLLVGGLDTVVNFLSFSMEFLAKSPEHRQELIERPERIPAACEELLRRFSLVADGRILTSDYEFHGVQLKKGDQILLPQMLSGLDERENACPMHVDFSRQKVSHTTFGHGSHLCLGQHLARREIIVTLKEWLTRIPDFSIAPGAQIQHKSGIVSGVQALPLVWDPATTKAV

Variants of: B1
Conditions: Pseudomonas putida; pH 7.4; Thermal; DSC; Tris 50 mM; KCl 100 mM; reversible: Yes; structure 2CPP; whole UniProt chain shown

Row | Variant | Tm [°C] | change of melting temperature, mutant - wild type (higher = more stable) [°C]
1 | T102V | 63.5 | -1.8
